Measurements as given in the supplement of paper PMC9170038.

Test system: MS2 coat protein
Experiment: apparent KD of MS2 coat protein; higher = weaker reporter binding
Settings: Eterna round: R107
Method in brief: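 Apparent KD stands for the median, per design, of fits to normalised cluster binding curves. The curves came from titrating on-chip-transcribed RNA switches on Illumina sequencing clusters with SNAP-549-labelled MS2 coat protein, twofold from 0.7 or 1.5 nM to 3 µM. Buffer was 100 mM Tris-HCl pH 7.5, 80 mM KCl, 4 mM MgCl2, without or with constant ligand.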

[1] = input ligand: theophylline 20 uM
[2] = input ligand: theophylline 2 mM
[3] = input ligand: tryptophan 2.4 mM

Sequence	apparent KD of MS2 coat protein (input ligand: arginine 13.2 mM)	apparent KD of MS2 coat protein (input ligand: none)	apparent KD of MS2 coat protein [1]	apparent KD of MS2 coat protein [2]	apparent KD of MS2 coat protein [3]
GAAGAGACCUCGGCCGCCACUCGCCAUGAGGAUCUCCCAUGUAACAUGAGGAUCACCCAUGUACAGAGGACCGGGAGGUCCUAGU [Same State Tryptophan B GF 14]	12.8 nM	21.2 nM	39.1 nM	24.8 nM	50.1 nM
CCGUUAAAAUUCCAUUAUACAAUACCUGAAGGAGCGUAGGAAACUACAGGUAGGUCGCAGAUACAUGAGGAUCACCCAUGUACGG [SSAA #13]	14.6 nM	16.2 nM	20.3 nM	22.5 nM	17.3 nM
GCGAUGGAGCGAAGGAGCGGCUGUGACUACAUGAGGAUCACCCAUGUACGAUCGUAAGGUAGCCAGGUAGGUCGCGCUCCAUCGC [SSAB NP+V+V2 #17]	18.7 nM	29.3 nM	41.8 nM	41.8 nM	26.2 nM
AGUACAUGAGGAUCACCCAUGUAUCGGUACCGAGGACCGGUACGGCCGCCACUCGCAGGACAUGAGGAUCACCCAUGUGCCGCCG [SSTA DOUBLE!!! :-D #9]	13.9 nM		22.6 nM	22.4 nM	
CACAUGAGGAUCACCCAUGUCUGAACUGAAGGAGCGCUAAACAAGGCAGGUAGGUCGCGGAAUUUUGUGUGCAUAUGCACACGGG [9.R]	16.8 nM	17.2 nM	32.7 nM	21.1 nM	17.6 nM
GUAUCUAUGUGAAAUAGAUAUAUAACUGAAGGAGCGUCAUUAAGGACAGGUAGGUCGCAGAGCACCUGAGGAUCACCCAGGUAGG [Arg A SS s1]	27 nM	25.7 nM	27 nM	31.6 nM	27.2 nM
ACCUACACGGAGACGUGUAGGAGUAAUGAUACCAGCAUGGAGACAUGCCCUUGGCAGCGUUACAUGAGGAUCACCCAUGUAGGUU [ETHA #4]	43.3 nM	43.6 nM	59 nM	78.8 nM	43.1 nM
UGGAGUAGGGUAAAUAGGAUAAGUACAGAAGGAGCGCGAAUAAACGCAGGUAGGUCGCUGGAACACAUGAGGAUCACCCAUGUUG [Same State Arginine A GF 24]	20.9 nM	25.4 nM	26.2 nM	17.8 nM	25.4 nM
GUAUGGAAACAUACUAUGGUAUCGUGAGAUACCAGUACAGAAAUGUACCCUUGGCAGCUCGCGCAUACAUGAGGAUCACCCAUGU [Ex Theophylline A 10]	16.4 nM		25 nM		19.5 nM
AAAAUAUACGGAAGGAGCGUGUAAGAUUAAGAACAUGAGGAUCACCCAUGUUUUAAGGGAACACAGGUAGGUCGCCGUAUAUAAA [11.N]	12.9 nM	11.9 nM	11.6 nM	10.3 nM	11.8 nM
GCACAUGAGGAUCACCCAUGUACAACUGAAGGAGCGAGACAGAACUCAGGUAGGUCGCAGACUGCACAAUUGCGGACGACAUGGG [Exclusion Arginine A GF21]	25.8 nM	34.2 nM	44.1 nM	40.9 nM	30.1 nM
AUCGUACCUGGUGAUACCAGCAAUUGCUCGUGACAUGAGGAUCACCCAUGUGACCAGUGAUGCCCUUGGCAGCAUGGUCGGUGCA [Same State - Theophylline B (Freestyle 23)]	36.8 nM		65.3 nM		61.2 nM
UCCUCCUCCGCAAGGAGGAGGAGUUGCGAUACCAGCACGGCAACGUGCCCUUGGCAGCGCACAUGAGGAUCACCCAUGUCAUGUU [#1 Exclusion - Theophylline A Attempt #10 (HarryS)]	15.5 nM		29.5 nM		18.8 nM
AGCCCGUGAGCGGCCGCCACUGGAGGCUUUGCGCGACAUGAGGAUCACCCAUGUGUGCCCGGCGUUAGGACCGGGUUCGCGUGGU [#1 Same State - Tryptophan B Attempt #18 (HarryS)]	30 nM	38.5 nM	48.7 nM	45.4 nM	32.4 nM
GAUGAACUAUAUGAUACCAGACAACAUGAGGAUCACCCAUGUGAUAGUCGUCCUCUGCCUGUCCCUUGGCAGCGUAUAGUUUAUC [XTheo B #19]	30.7 nM		74.7 nM		21.2 nM
ACGUAAUGCAGAAGGAGCGUCGAUCUCAUACAUGAGGAUCACCCAUGUUACAUGGUUGGACGACAGGUAGGUCGCUGAAGUACGA [#06 Exclusion - Arginine B]	24.2 nM	20.6 nM	35.5 nM	27.4 nM	21.4 nM
UAAUCCGGUCCUCGAUAACAUGGGUGAAUACGAGGACCGGUACGGCCGCCACUCGAUAACAUGAGGAUCACCCAUGUAAUAAUAA [|T'-M'-Trp-Ms2|_Design15]	38.2 nM		111 nM	73.6 nM	
GUAUGAGUUGACUGUGAGACUGGCGUGGAAGGAGCGCACGGAGGUGCAGGUAGGUCGCCACAUGAGGAUCACCCAUGUCAGGCCG [Ceedtila]	32.4 nM	38 nM	56.4 nM	111 nM	53 nM
GAGUAGAAGACGGCCGCCACUAAACAUGAGGAUCACCCAUGUCGUGAUCCGUUACCUAGAGUAGAUAGGACCGGGUCAUAUAGUC [Exclusion Tryptophan B GF 15]	27.5 nM		41.5 nM	30.2 nM	

Sequence	apparent KD of MS2 coat protein (input ligand: arginine 13.2 mM)	apparent KD of MS2 coat protein (input ligand: none)	apparent KD of MS2 coat protein [1]	apparent KD of MS2 coat protein [2]	apparent KD of MS2 coat protein [3]
AAUCGGGAUGGUCAAGGGUAUGCUAUAGAUACCAGUGCAGAGAAACACCCUUGGCAGCUGUGGAACAUGAGGAUCACCCAUGUAG [Theo A Ex t4]	17.2 nM	11.2 nM	22.7 nM	17.3 nM	11.1 nM
CGAGUUCGCUGAUGGGCUACGUCAGGUGAUACCAGCCACUCCCGCGGCCCUUGGCAGCACAUGAGGAUCACCCAUGUAGAGCUUG [Esinve]	12.2 nM		28.6 nM		15 nM
ACAUGAGGAUCACCCAUGUAACAACGGGAAGGAGCGCCAAACAAGGCAGGUAGGUCGCCCACAUGAGGAUCACCCAUGUGUUGGG [Exclusion Arginine A GF 27]	30.7 nM	30 nM	40.7 nM	39.1 nM	28.8 nM
GGGCGCGUGGACUGGCGUGCUCCGCUCCGUCGAGGACCGGUACGGCCGCCACUCGACAUGAGGAUCACCCAUGUGUGCGCUCGCG [#1 Exclusion - Tryptophan A Attempt #18 (HarryS)]	14.5 nM	21 nM	194 nM	40.4 nM	7.36 nM
UCGCCAUUGACGGCCGCCACUCAAUGGUCUUCUCUGAACAUAAUUAACAUGAGGAUCACCCAUGUGAGGACCGGGUCGGUUAGAC [theeternabot_exclusion_MS2_Trp_B_24]	17.4 nM		23.5 nM	20.4 nM	
AUAAUGGGUUUCGGACUAUCAUGGAAUGAUACCAGAUACUUAGAAAUCCCUUGGCAGCAUGAGGACAUGAGGAUCACCCAUGUAU [Th A Ex t1]	41.9 nM		78.9 nM		71.4 nM
ACACAUGAGGAUCACCCAUGUUGCAUAGAUACCAGAUAACGUGAGAUCCCUUGGCAGCUAACUGCAUGAACUUGACAUGCAUCAU [Same State Theophylline A 2]	44.2 nM		88.7 nM		53.5 nM
GAUAUAUAACGAAGGAGCGGCCCUUGAUCCUCAUGAGACAUGAGGAUCACCCAUGUCUCGGGCCAGGUAGGUCGCGUUAUAUAUC [Astros-omei-mod]	26.6 nM	21.5 nM	31.4 nM	27.9 nM	24.4 nM
AUAACAUGAGGAUCACCCAUGUAAGCUGAAGGAGCGCUGGAAACAGCAGGUAGGUCGCAGCAUGUUUCCACAUGGGUAGGAAACU [(M1)-(M2)-(Arg1)-(Arg2)-(A)'-(M)'-(A)''_Design8]	42.4 nM	80 nM	86.2 nM	123 nM	49.5 nM
AAUAAAUCACAUGAGGAUCACCCAUGUGAUACCAGCCUGGAAACAGGCCCUUGGCAGCACAUGAGGAUCACCCAUGUGCUAAAUA [TheoAX 1 #DoubleMS2 #OpenEnded]	6.79 nM		8.81 nM		8.43 nM
ACAUGAGGAUCACCCAUGUGGCGUCUUGAUACCAGACCCGAAGUAGUCCCUUGGCAGCAACUACGUGAGGGUCGCCCAUGUGUAG [k'kmullin]	23.5 nM	30.4 nM	40.8 nM	40.9 nM	25.5 nM
UGUAUGUGAUCUGAUACCAGCGUUGAUAACCUGAGGAUCACCCUGGUAAGGCGAAAGCCACGCCCUUGGCAGCAGAUCGCAUACU	158 nM		79.1 nM	19.8 nM	239 nM
UAUAUAGAAGGAAGUCAUAUAGAUGCAGAAGGAGCGUAGGAAACUACAGGUAGGUCGCUGAGGUACAUGAGGAUCACCCAUGUAG [SSArg A #15 Slice of Pi]	24.7 nM	32.3 nM	44.7 nM	24.9 nM	29.4 nM
UGUAACAUGAGGAUCACCCAUGUGAGUGAUACCAGACUAGUGUUAGUCCCUUGGCAGCACGCUGGGCGAGUGUGUAGUCUAUGCG [Same State - Theophylline A (Freestyle 16)]	60.9 nM	108 nM	136 nM	117 nM	105 nM
GUAAAUGUGACGGAUACCAGCGUGUUGUAGAACAUGAGGAUCACCCAUGUAGUGAUCAUGCGCCCUUGGCAGCUGGUAUGUUUGU [7.aB]	90.7 nM		504 nM		684 nM
AUCUCAUAGAGUGAUACCAGACUACAUGAGGAUCACCCAUGUUACAUUUAAAUAUCAUUUGUCCCUUGGCAGCACAUUAAGUACA [JR_Nu_ExcTheophyB_Sub019]	25.6 nM		33.2 nM		23.4 nM
AGCCUCAUACAUGAGGAACACCCAUGUGAUACCAGUCAGGAAACUGACCCUUGGCAGCGCAUGAGGAUCACCCAUGCGCGAGGCA [Omei Theo A Exc A v3]	20.4 nM	63 nM	78.2 nM	237 nM	47.7 nM
ACGCCCGCCUCACAUGAGGAUCACCCAUGUCGAGGACCGGUACGGCCGCCACUCGUCGUCGGUAAUACGGGCGUUGAAUAAUAUA [Atedon]	11.8 nM		14.9 nM	14.4 nM	
ACGACGCAUAGUGAUACCAGCACAACAUGAGGAUCACCCAUGUCACUUAUGUAGUAAUAAUGCCCUUGGCAGCACUAUGCGUCAG [SSTheo B #1]	40.7 nM		66.3 nM		52.6 nM
